By stoichiometry N is commonly meant the number of molecules, sites or subunits per partner or assembly.

Data set [1] concerns the target GST-Myosin II-1148-1652 (human) (UniProt P35579). Description: ELISA; solid-phase assay: 96-well plates coated with 10 µg GST-GFP, GST-Myosin II-1148-1652 or GST-RAB6A:GTP; 0-40 µg 6xHis-RAB6:GTP or 6xHis-KIF20A-529-665 added; 20 mM Hepes pH 7.5, 100 mM NaCl, 5 mM MgCl2; detection with anti-6xHis antibodies, absorbance at 450 nm. A general note: ELISA stands for enzyme-linked immunosorbent assay.

Data set [2] concerns the molecule itself. Description: crystal structure; complex of RAB6A-Q72L-8-195 and KIF20A-603-665 at 10 mg/ml; 100 mM Hepes pH 7.4, 200 mM ammonium sulfate, 24% PEG 8K, 2% isopropanol, 17 °C; 2 Å.

As for “6xHis-RAB6:GTP (from UniProt P20340 1-208) (natural protein)”, the fold lower affinity than RAB6 and Myosin II-1148-1652 have for KIF20A-RBD-529-665 in data set [1] amounted to 5 fold.

B1: KIF20A fragment (603-665) (domain or fragment, UniProt P97329 603-665, looked up)
chain: EQWCSERLDNQKELMEELYEEKLKILKESLTTFYQEQIQERDEKIEELETLLQEAKQQPAAQQ
notes: Parallel right-handed coiled-coil dimer with an inter-helical cysteine bridge; also called KIF20A-RBD; source: E. coli BL21 (DE3), co-expressed with m20, purified (Glutathione Sepharose 4B, rTEV cleavage, Ni-NTA); not shown: GST, N-terminal, cleaved
As to B1, the “stoichiometry N” value in data set [2] is 2.
